The data set can be described thus: soluble on expression in E. coli; label from the status in PepcDB or PDB records.
Turning to “MGSDKIHHHHHHELPDNRTELNENNVGKILLSAYPTTAICEMGEMSSDNTDAYPNRFSSFNRLQEDLYKWADSAEQDQDSPHALWESCYMAISACNEVLKVIEDAGNPASLSAEKGEALVCRAYAHFLLANIFCNAYSSQASSDLGIPYMKTIETTVSPDYQRGTLEEVYQNIEKDLLEGLDLVTDIYAVPKYHFTKKAAQAFAARFYLYYVKSDKSNYTKVIDYATKVLGSNPATSVRDWKSLGALDINGSVQPNAYVDATNGANLLLVSAGSYWGYVHAPYGLGERYAHGPKVGNETCNSVGPWGSDYYMGVWSNSSALPTKIVVMKITQYKEVVDAVAGTINGHMINAAFTTDETLLCRAEAYAMKEMYPQAIADLNIWREAYTRSTTPLTTESINDFYGSMEYYTPTESTVKKKLNPDFTITNETQENVIHCILHARRLTTLHEGLRWQDIKRYGITIYRRLMNDNGTITVTDKLEPNDPRRAIQIPSDVISAGLKPNPRTK”, the “soluble on expression in E. coli” value is “not soluble”.

Take “MKYKIFASTTPQTEPVLQKLKQVLKGCEAVEKGFDYLFVLGGDGFFVSTVANYNCHNCRVVGINTGHLGFYTSFNEKDLDDNFLQKLQQCHFQRISLLEVSVNGQQHLVLNELAVYTNTAYPINIFIDGEAWEFYRGSGLLIGPRTGSTALAKSAKGAVIFPGIDVLQIIEMNPLLHPNQVTIQSPIILPKETQVEFVVKKAFNPQQFPTFYCDGRKLELPNADTTLALKLVQSTPMFNISLKTQDFINKLKSTFIKQSLEHHHHHH”: the “soluble on expression in E. coli” value is on record as “not soluble”.

With “MAHHHHHHMESQKERGNAAYREKRYRDAINAYTAAIELDLTNVRMVATLRANQAAAKMELKEYSSALLDCEFAIQNGVNSAKLYARRARIHEALNNYDDALRDIQKASEMDGSYQREFQRTKASSKKAMRKDYYKILDLPPNESDDAQIKRAYKKACLRWHPDKWANAGPEEKTHAEKMFKDVGEAFSILSDAKKKRMYDNGMIDNAVEGAGESGFSGFPGQDEALMEMMNRMFFTGGGMSGGFGFNGFPQGRRQQYQQSYTFQFF”, the “soluble on expression in E. coli” value is “not soluble”.

For the sequence “MGSDKIHHHHHHMLKIGKRNPNKPLVIENDQVVSLYFDARGVQSTMLRHDPYALALGYTRTMMGFLLFRPSPCRISMIGLGGGSLAKYCYRHLPDTAITAIEINPDVIALRDHFHVPRDDGRFTVVCADGAQYVAVPGHRPDVLLVDGFNADGLPARLGSSAFYEACRRRLSDDGVLVANLVTDEPDFHRYLRALWEVFAGAVALAPSEGSEHNVTVFAWKGAGGLPSFAAMLDRARALQARHAVNLHATATRIEYGKKFNWSRYGRTA”, the “soluble on expression in E. coli” value was “not soluble”.

On to “QKIEKQYDADLEQILIQWITTQCRKDVGRPQPGRENFQNWLKDGTVLCELINALYPEGQAPVKKIQASTMAFKQMEQISQFLQAAERYGINTTDIFQTVDLWEGKNMACVQRTLMNLGGLAVARDDGLFSGDPNWFPKKSKE”, for which the “soluble on expression in E. coli” value is “soluble”.

For the sequence “SVQNPVEVSCSLQTQIFVFTPGASSVTIIWWVCFLTSVSMSAQTSPAEKGLNPGLMCQESYACSGTDEAIFECDECCSLQCLRCEEELHRQERLRNHERIRLKPGHVPYCDLCKGLSGHLPGVRQRAIVRCQTCKINLCLECQKRTHSGGNKRRHPVTVYNVSNLQESLEAEEMDEETKRKKMTEKVVSFLLVDENEEIQVTNEEDFIRKLDCKPDQHLKVVSIFGNTGDGKSHTLNHTFFYGREVFKTSPTQESCTVGVWAAYDPVHKVAVIDTEGLLGATVNLSQRTRLLLKVLAISDLVIYRTHADRLHNDLFKFLGDASEAYLKHFTKELKATTARCGLDVPLSTLGPAVIIFHETVHTQLLGSDHPSEVPEKLIQDRFRKLGRFPEAFSSIHYKGTRTYNPPTDFSGLRRALEQLLENNTTRSPRHPGVIFKALKALSDRFSGEIPDDQMAHSSFFPDEYFTCSSLCLSCGVGCKKSMNHGKEGVPHEAKSRCRYSHQYDNRVYTCKACYERGEEVSVVPKTSASTDSPWMGLAKYAWSGYVIECPNCGVVYRSRQYWFGNQDPVDTVVRTEIVHVWPGTDGFLKDNNNAAQRLLDGMNFMAQSVSELSLGPTKAVTSWLTDQIAPAYWRPNSQILSCNKCATSFKDNDTKHHCRACGEGFCDSCSSKTRPVPERGWGPAPVRVCDNCYEARNVQLAVTEAQVDDEGGTLIARKVGEAVQNTLGAVVTAIDIPLGLVKDAARPAYWVPDHEILHCHNCRKEFSIKLSKHHCRACGQGFCDECSHDRRAVPSRGWDHPVRVCFNCNKKPGDL”, the “soluble on expression in E. coli” value was “soluble”.

Turning to “SFTSQQWKHLSNDFLKTQQEKRHSWFKASGTIKKFRAGLSIFSPIPKSPSFPIIQDSMLKGKLGVPELRVGRLMNRSISCTMKNPKVEVFGYPPSPQVSGHCKNIPTLEYGFLVQIMKYAEQRIPTLNEYCVVCDEQHVFQNGSMLKPAVCTRELCVFSFYTLGVMSGAAEEVATGAEVVDLLVAMCRAALESPRKSIIFEPYPSVVDPTDPKTLAFNPKKKNYERLQKALDSVMSIREMTQGSYLEIKKQMDKLDPLAHPLLQWIISSNRSHIVKLPLSRLKFMHTSHQFLLLSSPPAKEARFRTAKKLYGSTFAFHGSHIENWHSILRNGLVNASYTKLQEWEKDSTGCPPRMSWSRDTTG”, the “soluble on expression in E. coli” value was “soluble”.

As to “MSLATIKDIAKEVGCSISTVSRVLNNDPTLSVGDETRSRIFEVAEEIGYRKKTLKTLVKNIAFLYWLTDNEELEDVYFQTMRVEIEKKARENNIELTTYKLEGGIEKIPLDIDGFIAVGSFMNRELEYLRELTPHGVFIDSTPDPAHYDSVRPDLAQITRQAVEVLVEQGHEKIGFIGGTYHNLDTDAEEMDGRERAFRQTMEERDLLREDFIFCRRGFSVDNGHYLMNQAVEQLGEELPTAFYVAADPIAVGCLQVLNEQQIEIPKRVSLISVNDTSISKYVSPPLTTFHIDLEEICQNAIQLLLERVLKKRNIVKTVYIGAELITRKSTEGHHHHHH”, the “soluble on expression in E. coli” value was “soluble”.

On to “MGSCMKWDYGEMEDFSVSASGLFITNEGNFQYSNATLSYYDPATCEVENEVFYRANGFKLGDVAQSMVIRDGIGWIVVNNSHVIFAIDINTFKEVGRITGFTSPRYIHFLSDEKAYVTQIWDYRIFIINPKTYEITGYIECPDMDMESGSTEQMVQYGKYVYVNCWSYQNRILKIDTETDKVVDELTIGIQPTSLVMDKYNKMWTITDGGYEGSPYGYEAPSLYRIDAETFTVEKQFKFKLGDWPSEVQLNGTRDTLYWINNDIWRMPVEADRVPVRPFLEFRDTKYYGLTVNPNNGEVYVADAIDYQQQGIVYRYSPQGKLIDEFYVGIIPGAFCWKLEHHHHHH”, for which the “soluble on expression in E. coli” value is recorded as “not soluble”.

Regarding “MSLKYDVVVIGAGGAGYHGAFRLAKAKYNVLMADPKGELGGNCLYSGCVPSKTVREVIQTAWRLTNIANVKIPLDFSTVQDRKDYVQELRFKQHKRNMSQYETLTFYKGYVKIKDPTHVIVKTDEGKEIEAETRYMIIASGAETAKLRLPGVEYCLTSDDIFGYKTSFRKLPQDMVIIGAGYIGLEIASIFRLMGVQTHIIEMLDRALITLEDQDIVNTLLSILKLNIKFNSPVTEVKKIKDDEYEVIYSTKDGSKKSIFTNSVVLAAGRRPVIPEGAREIGLSISKTGIVVDETMKTNIPNVFATGDANGLAPYYHAAVRMSIAAANNIMANGMPVDYVDVKSIPVTIYTIPSLSYVGILPSKARKMGIEIVEAEYNMEEDVSAQIYGQKEGVLKLIFERGSMRLIGAWMIGVHSQYLINELGLAVAYGLNAKQLASFAEQHPSTNEIISYTARKVIEGHHHHHH”, the “soluble on expression in E. coli” value is recorded as “soluble”.

In the case of “MLLGEGAFGQVFKGILRGPNGQVIPVAVKQLKANAIDEEREEFVREIQMMQTVGQHDNIVTMYGYCMDEQLQCMIMEYVPYGDLKHYLQNMRKEKDSDSAIDSKEFLSFTNQIACGMAHLESVGIIHRDLAARNILVGTGKVLKISDFGMSRPGVYIKMSKGVIPLRWLSPEAIKDNTYSNKSDVWAFGVLLWEIATLGGFPYNNVADKDILNQLTEGMRLEQPAKCSDDMYILMKSCWNLKAEDRPSFLAILSKIEQIANVDADAPPSDPPAKDV”, the “soluble on expression in E. coli” value is recorded as “not soluble”.

In the case of “MGSDKIHHHHHHMKQLTMPLTALALFTLGGCVTNSDLDVVRRDLDELKNRQFQVEKEVGGVRTEATARIESSFKDLDTERAGVRKGLADLQAAMDGIKVDMQVLAGKVDDVGLAAKKPGDDLILLREDLERRLTAFDQRLAKAETGIEALQKKVAEQAPSPKETEKPTPEALYQKGLDAYRAGNYGVARESFTRFLEQHPKHELAANARYWTGETYYSEKKFEQAILEFQEVIKNYPGKEKVPAAMLKQAAAFSEIGDAKSARFVLRKLADDYPSSEEAKRAKDRLKELK”, the “soluble on expression in E. coli” value was “not soluble”.

For the sequence “MAHHHHHHMESPRQEPLPQQPSELNTNAAAVLSTTTTESYVYTCRMCRHVLFMHHEILPHYPEPVGSGNKGFKYRGGGHASSQQQQGLHAAQEGGDVCTSYFLDPDISPWVAEESREVHQVSGGLDVMPDTIYCPNRKCNAKIGTQSWVGSQCSCGAWVTPAFKIHSRVVDKMPVAQ”, the “soluble on expression in E. coli” value is “not soluble”.

In the case of “MGIIISLVAPTVSSTISSRLMIGPENNEKDAKNSDRTKYDNLAMLGRSPEQKEHVNPFEKAPVARPTRNTVDSQMMLGPPKKANDQSASDCSIYDNLVVPMSELGPTPGNKPSPNPIEGAPMIRPPQDTVSRAPDNSIYDTLQMTPEVDWSKKMTMKSMKKTGK”, the “soluble on expression in E. coli” value is “not soluble”.

Turning to “MGSDKIHHHHHHMSQLLRKPERAEISKGVTLVHDVTADNASLEYVSFKALDLSQGATYSETLENKECCIVVVTGKVHVTDHEVTFENIGTRESVFEKKPTDSVYVSNNQTFSIEAVTGARVALCYAPSKNQLPTKLIKAEDNGVEHRGKGNNQRMVHNILPDSDPSANSLLVVEVFTESGNWSSYPPHKHDRDLLPEESLLEETYYHEVNPKQGFVFQRVYTDDRSLDETMTVENENMVIVPKGYHPVGVPEGYASYYLNVMAGPKRIWKFFNDPAHEWIIE”, the “soluble on expression in E. coli” value is reported as “not soluble”.

Take “MSLTTQLGLPDDIQACLFDLDGVVTRTAVVHAAAWKATFDTFLRERDGADFRPFTDSDYDQYVDGRPRADGVRSFLASRGVELPEGTPDDPPDARTVNGVGNRKNELLLEKIRTDGVEPYEGTLRYIDAVRAAGLATAIVSSSANTRDVLRSIDAERLFDVRIDGVVARERKLPGKPHPDTFLAAARDLGVEASRAAVFEDALAGMDAGRSGHFGYVVGVDRVGQTDALYAHGADRVVKDLAELGDHAEGHHHHHH”: the “soluble on expression in E. coli” value was “soluble”.

With “MGSDKIHHHHHHVKKLLNTLFINQSDSYLALDGGNVLVKADGQVLGRVPLHNLEGIVAFGYTGASPALMGHCAENGIALTFMTKNGRFLARVIGESRGNVVLRKTQYRRSDDEVASARLAKNFILGKLYNQKWMLERMTRDYPLRLDVERFKTTSQDMTETMREIQVCENLERLRGLEGTIAVRYNRLFDSMILQQKEDFHFKGRTRRPPLDRVNAMLSFAYSLLARDVSAALEAVGLDAYVGFLHRERPGRASLALDVMEELRGIYADRFVLSLINKKVIQGKDFLQKENGAVIMTEEGRKTFLTAWQKKKQETIQHPYLKEKMMWGLVPYEQALLLARHLRDDLEAYPPFLYK”, the “soluble on expression in E. coli” value is listed as “not soluble”.

On to “GPGSMKSPHMARIGNSVYRDICPEDDPLCSNFGFEDYDLSRPTPMMRMSLLYNLHVSGESPSPAIDNMFRLAYRSRHGLVKIYKVMNVSAESKAWVADPKNRKCDAPGSWLCTGQYPPAKEIQEMLARRIDYGQLEDFNRGKRDDAYYRAYMRRIRNQGRG”, for which the “soluble on expression in E. coli” value is listed as “soluble”.
